Patent US20020173049A1
Non-standard residues stand in square brackets, D forms with d. No end group written: not given here. Ahx = NCCCCCC(=O)O

Molecular target: E3α (rabbit)
Assay: cell-based or functional assay

TCA-soluble 125I (cpm) from [125I]-lysozyme degradation in rabbit reticulocyte lysate at the 2 hour time point; no treatment 12,475 cpm: 3590 cpm
Substance: Phe-[Ahx]-Cys
